According to PMC8244865, “Recruitment of phospholipase Cγ1 to the non-structural membrane protein pK15 of Kaposi Sarcoma-associated herpesvirus promotes its Src-dependent phosphorylation” (PLoS Pathogens, 2021):

How the values were obtained:
Format in all cases: binding
[1] = test system: full-length PLCγ1 R586L or R694L; test: GST-pulldown, full-length PLCγ1 R586L or R694L; conditions: phosphorylated; full-length PLCγ1, HEK 293T; versus WT
Description: (§1) Fig 3 Contribution of individual PLCγ1 SH2 domains to the interaction with phosphorylated pK15. The pK15 CT fused to GST, its Y^481F mutant, or GST alone were bound to glutathione beads, phosphorylated in vitro (+) or left unphosphorylated (-), and a GST pulldown was performed 32h after transfection into HEK-293T cells of expression vectors for S-tagged full-length PLCγ1 (FL) (A) or PLCγ1 SA (B) containing the indicated mutations. (C) pK15 CT WT, its Y^481F mutant or GST were bound to glutathione beads, phosphorylated in vitro (+) or left unphosphorylated (-), and used for a GST pulldown assay 32h after transfecting HEK 293T cells with expression vectors for S-tagged individual PLCγ1 nSH2 or cSH2 domains. […]
(§2) HEK293T cells were washed once with cold PBS 30 hours after transfection, lysed in IP buffer (50 mM Tris pH7.6, 60 mM NaCl, 6.25 mM EDTA, 1% (v/v) glycerol, 0.04% (v/v) NP-40) on ice for 30 minutes, sonicated shortly and cleared by centrifugation for 10 minutes at 20.000g, 4°C. […] Beads were then washed 5 times in 500 μl IP buffer (or for purified proteins IP buffer with 200 mM NaCl), suspended in 10 μl of 5x Laemmli sample buffer (60 mM Tris pH6.8, 24% (v/v) glycerol, 2% (v/v) SDS, 5% (v/v) β-mercaptoethanol, 0.01% Bromphenol Blue) and analysed by western blot.

PLCγ1 SA R586L+R694L = test: GST-pulldown, PLCγ1 SA double mutant; conditions: phosphorylated; HEK 293T
Description: as §1, §2

PLCγ1 tSH2 domain = test: AlphaLISA, PLCγ1 tSH2; conditions: phosphorylated by 2xStrep-Src, 300 nM each protein, 1 h room temperature, 615 nm, at least two independent experiments
Description: (§3) Fig 4 The PLCγ1 cSH2 domain is required for the binding of PLCγ1 to phosphorylated pK15 in vitro and may serve as a dominant-negative inhibitor. GST-fused pK15 cytoplasmic tail WT (A), or its truncated mutant N2 [51] (B), were phosphorylated in vitro by 2xStrep-Src and an AlphaLISA was performed with the indicated His-tagged fragments of PLCγ1. Mean and standard deviation from at least two independent experiments with two technical replicates each are depicted. GST fusion proteins of the N1 (C) or N2 (D) truncation mutants of the pK15 cytoplasmic tail were phosphorylated in vitro by 2xStrep-Src and their interaction with recombinant purified PLCγ1 tSH2 (tandem SH2) or SA (γ-specific array) domains was measured by AlphaLISA in the presence of increasing concentrations (300 nM, 600 nM, 900 nM, 1200 nM) of the purified PLCγ1 cSH2. […] After 48h lysates were collected and analysed by Western blot using an antibody to PLCγ1 pY^783 to assess the level of PLCγ1 phosphorylation. (F) The intensities of the pPLCγ1 bands shown in panel E were quantified by densitometry, normalized to the values obtained with the empty vector (EV) in the presence of pK15, and plotted as relative values. […]
(§4) His-tagged PLCγ1 (SA, tSH2 or the isolated SH2 domains) was incubated at room temperature with GST-tagged K15P or its mutants for 1 hour. […] Emission at 615 nm was detected on BioTek Synergy 2 plate reader.

PLCγ1 cSH2 domain = test: AlphaLISA, isolated PLCγ1 cSH2; conditions: phosphorylated, 300 nM each protein, domain tested individually
Description: as §3, §4

B1: pK15 CT^WT: pK15 cytoplasmic tail fused to GST at its N-terminal end, phosphorylated in vitro by Src (protein)
chain: SQLLNEVELQEVNRDPPNVFGYASILVSGAEESREPSPQPDQSGMSILRVDGGSAFRIDTAQAATQPTDDLYEEVLFPRN
modifications: tyrosine-phosphorylated in vitro by Src; sites not stated for this construct; left off: GST, N-terminal, kept
With B1 as the molecule, how does the “binding of mutants (GST-pulldown)” value [1] read?
The value was “moderately reduced binding”.

And the “binding of double mutant (GST-pulldown)” value (PLCγ1 SA R586L+R694L)?
Its value is “completely eliminated the binding”.

And the “interaction (AlphaLISA)” value (PLCγ1 tSH2 domain)?
Its value is “bound more strongly to the PLCγ1 tSH2 domain than to the PLCγ1 SA domain”.

And the “interaction (AlphaLISA)” value (PLCγ1 tSH2 domain; listed as pK15 CT^N2)?
The value was “binds strongly to the PLCγ1 tSH2 domain”.

And the “interaction (AlphaLISA)” value (PLCγ1 cSH2 domain)?
The value was “only the PLCγ1 cSH2 domain (and not the nSH2 domain) interacted”.

What about the “interaction (AlphaLISA)” value (PLCγ1 cSH2 domain; listed as pK15 CT^N2) of the same molecule?
The value was “did interact with the tSH2 and cSH2 domains”.
